Among the data in paper PMC12052159 are binding values, retold here.

Test in all cases: EMSA
Holding throughout (conditions): EMSA with 5' 32P PCR fragments, MarA 1, 2 or 4 uM, PAGE at 150 V; buffer, salt, pH and temperature not given (cited method)
For orientation: Mobility shift assays separate free from complexed probe on a gel.

One data set addresses T1, MarA (Escherichia coli) (UniProt P0ACH5).
T1 sequence: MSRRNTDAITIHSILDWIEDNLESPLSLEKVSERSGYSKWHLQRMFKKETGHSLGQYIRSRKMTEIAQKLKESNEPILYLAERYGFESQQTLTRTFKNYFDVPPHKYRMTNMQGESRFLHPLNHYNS

The next data set has as its target T2, SoxS (Escherichia coli) (UniProt P0A9E2).
T2 sequence: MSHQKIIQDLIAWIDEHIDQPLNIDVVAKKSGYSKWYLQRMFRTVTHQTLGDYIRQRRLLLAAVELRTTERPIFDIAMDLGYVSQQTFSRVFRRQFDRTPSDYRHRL

A further data set concerns the target T3, Rob (Escherichia coli) (UniProt P0ACI0).
T3 sequence: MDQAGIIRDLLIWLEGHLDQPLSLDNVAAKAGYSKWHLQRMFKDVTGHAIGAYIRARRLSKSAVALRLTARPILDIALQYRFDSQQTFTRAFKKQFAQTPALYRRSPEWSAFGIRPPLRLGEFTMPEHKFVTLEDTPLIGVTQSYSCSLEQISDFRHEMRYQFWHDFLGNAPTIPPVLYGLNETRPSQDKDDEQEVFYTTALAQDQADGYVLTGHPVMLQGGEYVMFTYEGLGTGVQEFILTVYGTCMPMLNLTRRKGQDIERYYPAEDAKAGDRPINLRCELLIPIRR

“AATTCATTGGCCAGAGGGTTTGGTTGGGTGAGAATGTGACGGTTTTGCCTGGAACAATTATTGGTAATGGAGTCGTAGTCGGCGCCAATTCTGTTGTTAGAGGTTCTATTCCCGAAAATACTGTCATTGCGGGAGTACCAGCAAAAATCATAAAGAAATACAATCATGAGACCAAATTATGAAGCTTCGGGC / GCCCGAAGCTTCATAATTTGGTCTCATGATTGTATTTCTTTATGATTTTTGCTGGTACTCCCGCAATGACAGTATTTTCGGGAATAGAACCTCTAACAACAGAATTGGCGCCGACTACGACTCCATTACCAATAATTGTTCCAGGCAAAACCGTCACATTCTCACCCAACCAAACCCTCTGGCCAATG [wbbK regulatory region]”: the binding result in the data set with MarA (Escherichia coli) was “no binding”.

“AATTCCATGGTGTACGGTTCCTGCGAGATGGGAAAGTAAAAATCCGCGGCATGATATAGCAATTATCGATAATTAACATCCACACATTTTACGCTACATTTGCGCATTAAAAATTATTTGTTATTTACAAGCGCGGCAAGGGCCGCCAGTCTTCAGCCACAAATTTTGGTTGCGGGCGAAAAAATGCGACAATACATACAATTGCCCGAATAGGTTGAAAAACAGGATTGATATGAAGCTTCGGGC / GCCCGAAGCTTCATATCAATCCTGTTTTTCAACCTATTCGGGCAATTGTATGTATTGTCGCATTTTTTCGCCCGCAACCAAAATTTGTGGCTGAAGACTGGCGGCCCTTGCCGCGCTTGTAAATAACAAATAATTTTTAATGCGCAAATGTAGCGTAAAATGTGTGGATGTTAATTATCGATAATTGCTATATCATGCCGCGGATTTTTACTTTCCCATCTCGCAGGAACCGTACACCATGG [lpxLmut3 regulatory region]”: the binding result in the data set with MarA (Escherichia coli) was “binds”.

“AATTCTGCAACTAAACCGTGGCACAAATGGGCAATTTATCCATCGGTAAAATACTATAAAATAGCTTTAGAAAATTCCCCCTGGAAAGATGACTCTCCACGAGATGCGAAATCAATTATTGAATTTAAAAAAAGATATAAACATCTTTTAGTGCAACATCATTATATCTCAGGAATTATAGCAGGAGTCTGTTATCTTTGCCGAAAATATTACCGTAAATAACATTTAACTGGTTTATTATGAAGCTTCGGGC / GCCCGAAGCTTCATAATAAACCAGTTAAATGTTATTTACGGTAATATTTTCGGCAAAGATAACAGACTCCTGCTATAATTCCTGAGATATAATGATGTTGCACTAAAAGATGTTTATATCTTTTTTTAAATTCAATAATTGATTTCGCATCTCGTGGAGAGTCATCTTTCCAGGGGGAATTTTCTAAAGCTATTTTATAGTATTTTACCGATGGATAAATTGCCCATTTGTGCCACGGTTTAGTTGCAG [rfaY (waaY) regulatory region]”: the binding result with SoxS (Escherichia coli), with MarA (Escherichia coli) and with Rob (Escherichia coli) was “binds” throughout.

On to “AATTCTGCGTAAGCAAGCTGATTAAGAATTGACTGGAATTTGGGTTTCGAGTGTGTTTGTGCTAAACTGGCCCGCCGAATGTATAGTACACTTCGGTTGGATAGGTAATTTGGCGAGATAATACGATGAAGCTTCGGGC / GCCCGAAGCTTCATCGTATTATCTCGCCAAATTACCTATCCAACCGAAGTGTACTATACATTCGGCGGGCCAGTTTAGCACAAACACACTCGAAACCCAAATTCCAGTCAATTCTTAATCAGCTTGCTTACGCAG [lpxCmut regulatory region]”, for which the binding entry with MarA (Escherichia coli) is reported as “binds more weakly”.

Take “GCCCGAAGCTTCATAACTGTAACCTTCGAATTATGGAGTCAGAGACAATCTCAGACACGAATGTCTGTAATCATACCATCACATCCGAATCCCTTCAGCCCTTTACATAGAGGTGCAAGGATGCTAATTGCAACAAACTAGTTTGGGTTTTAGCTAGTCCTTCATGGCGGATGTTGGTTTTGCATGTGAATAGTGCG / AATTCGCACTATTCACATGCAAAACCAACATCCGCCATGAAGGACTAGCTAAAACCCAAACTAGTTTGTTGCAATTAGCATCCTTGCACCTCTATGTAAAGGGCTGAAGGGATTCGGATGTGATGGTATGATTACAGACATTCGTGTCTGAGATTGTCTCTGACTCCATAATTCGAAGGTTACAGTTATGAAGCTTCGGGC [waaD regulatory region]”: the binding result in the data set with MarA (Escherichia coli) is recorded as “no binding”.

In the case of “GCCCGAAGCTTCATAGTAAATAGCTGACTTATGGATGTGCTGGGGATTCTATGTATTTAGCTGTGGCTTTACCATTACTTTTCCCGTTTTTGACTTAAATAGCTTCAGTTTGGTCTGATCTGCCGCTACATCTTCATTTTTTTTGTATTTTTATGCGATTCATTGAAACTCGGCCCG / AATTCGGGCCGAGTTTCAATGAATCGCATAAAAATACAAAAAAAATGAAGATGTAGCGGCAGATCAGACCAAACTGAAGCTATTTAAGTCAAAAACGGGAAAAGTAATGGTAAAGCCACAGCTAAATACATAGAATCCCCAGCACATCCATAAGTCAGCTATTTACTATGAAGCTTCGGGC [kdtA (waaA) regulatory region]”, the binding entry with MarA (Escherichia coli) is recorded as “binds”.

Turning to “GCCCGAAGCTTCATATCAATCCTGTTTTTCAACCTATTCGGGCAATTGTATGTATTGTCGCATTTTTTCGCCCGCAACCAAAATTTGTGGCTGAAGACTGGGCGAAATTGCCGCGCTTGTAAATAACAAATAATTTTTAATGCGCAAATGTAGCGTAAAATGTGTGGATGTTAATTATCGATAATACATATATCATGCCGCGGATTTTTACTTTCCCATCTCGCAGGAACCGTACACCATGG / AATTCCATGGTGTACGGTTCCTGCGAGATGGGAAAGTAAAAATCCGCGGCATGATATATGTATTATCGATAATTAACATCCACACATTTTACGCTACATTTGCGCATTAAAAATTATTTGTTATTTACAAGCGCGGCAATTTCGCCCAGTCTTCAGCCACAAATTTTGGTTGCGGGCGAAAAAATGCGACAATACATACAATTGCCCGAATAGGTTGAAAAACAGGATTGATATGAAGCTTCGGGC [lpxLmut1 regulatory region]”, in the data set with MarA (Escherichia coli), the binding result is listed as “binds more weakly”.

Consider “GCCCGAAGCTTCATATCAATCCTGTTTTTCAACCTATTCGGGCAATTGTATGTATTGTCGCATTTTTTCGCCCGCAACCAAAATTTGTGGCTGAAGACTGGGCGAAATTGCCGCGCTTGTAAATAACAAATAATTTTTAATGCGCAAATGTAGCGTAAAATGTGTGGATGTTAATTATCGATAATTGCTATATCATGCCGCGGATTTTTACTTTCCCATCTCGCAGGAACCGTACACCATGG / AATTCCATGGTGTACGGTTCCTGCGAGATGGGAAAGTAAAAATCCGCGGCATGATATAGCAATTATCGATAATTAACATCCACACATTTTACGCTACATTTGCGCATTAAAAATTATTTGTTATTTACAAGCGCGGCAATTTCGCCCAGTCTTCAGCCACAAATTTTGGTTGCGGGCGAAAAAATGCGACAATACATACAATTGCCCGAATAGGTTGAAAAACAGGATTGATATGAAGCTTCGGGC [lpxL regulatory region]”, for which the binding result with SoxS (Escherichia coli), with MarA (Escherichia coli) and with Rob (Escherichia coli) was “binds” each time.

Consider “GCCCGAAGCTTCATATCAATCCTGTTTTTCAACCTATTCGGGCAATTGTATGTATTGTCGCATTTTTTCGCCCGCAACCAAAATTTGTGGCTGAAGACTGGGCGAAATTGCCGCGCTTGTAAATAACAAATAATTTTTAATGCTGTAATGTAGCGTAAAATGTGTGGATGTTAATTATCGATAATTGCTATATCATGCCGCGGATTTTTACTTTCCCATCTCGCAGGAACCGTACACCATGG / AATTCCATGGTGTACGGTTCCTGCGAGATGGGAAAGTAAAAATCCGCGGCATGATATAGCAATTATCGATAATTAACATCCACACATTTTACGCTACATTACAGCATTAAAAATTATTTGTTATTTACAAGCGCGGCAATTTCGCCCAGTCTTCAGCCACAAATTTTGGTTGCGGGCGAAAAAATGCGACAATACATACAATTGCCCGAATAGGTTGAAAAACAGGATTGATATGAAGCTTCGGGC [lpxLmut2 regulatory region]”, for which the binding entry with MarA (Escherichia coli) is reported as “binds”.

For the sequence “GCCCGAAGCTTCATCGTATTATCTCGCCAAATTACCTATCCAACCGAAGTGTACTATACATTCGGCGGGCCAGTTTAGCACAAAGAGCCTCGAAACCCAAATTCCAGTCAATTCTTAATCAGCTTGCTTACGCAG / AATTCTGCGTAAGCAAGCTGATTAAGAATTGACTGGAATTTGGGTTTCGAGGCTCTTTGTGCTAAACTGGCCCGCCGAATGTATAGTACACTTCGGTTGGATAGGTAATTTGGCGAGATAATACGATGAAGCTTCGGGC [lpxC regulatory region]”, the binding entry with SoxS (Escherichia coli), with MarA (Escherichia coli) and in the data set with Rob (Escherichia coli) was “binds” in each case.

Consider “GCCCGAAGCTTCATGATGAGCATTCAGATAGTGGTTCACGCGCACGGGTTGCGCACCGCCGGAGTAAGGATTTACTGAGGCTAGCGACGCCATCATAACGAGCAAAAAGACAGATCGTCAAAGGAGAATCGTGAGGAAATGCTGCATTGCTGACATTTACGCCG / AATTCGGCGTAAATGTCAGCAATGCAGCATTTCCTCACGATTCTCCTTTGACGATCTGTCTTTTTGCTCGTTATGATGGCGTCGCTAGCCTCAGTAAATCCTTACTCCGGCGGTGCGCAACCCGTGCGCGTGAACCACTATCTGAATGCTCATCATGAAGCTTCGGGC [pbpGmut regulatory region]”, for which, in the data set with MarA (Escherichia coli), the binding result is given as “no binding”.

Regarding “GCCCGAAGCTTCATGATGAGCATTCAGATAGTGGTTCACGCGCACGGGTTGCGCACCGCCGGAGTAAGGATTTACTGAGGCTAGCGACGCCATCATAACGAGCAAAAAGTGCGATCGTCAAAGGAGAATCGTGAGGAAATGCTGCATTGCTGACATTTACGCCG / AATTCGGCGTAAATGTCAGCAATGCAGCATTTCCTCACGATTCTCCTTTGACGATCGCACTTTTTGCTCGTTATGATGGCGTCGCTAGCCTCAGTAAATCCTTACTCCGGCGGTGCGCAACCCGTGCGCGTGAACCACTATCTGAATGCTCATCATGAAGCTTCGGGC [pbpG regulatory region]”, in the data set with MarA (Escherichia coli), the binding result is on record as “binds”.
